According to publication PMC11109247:

Tests used:
[1] = molecular target: T1, sF ectodomain (Nipah henipavirus), Q9IH63; experiment: MST; conditions: modification not given
T1 chain: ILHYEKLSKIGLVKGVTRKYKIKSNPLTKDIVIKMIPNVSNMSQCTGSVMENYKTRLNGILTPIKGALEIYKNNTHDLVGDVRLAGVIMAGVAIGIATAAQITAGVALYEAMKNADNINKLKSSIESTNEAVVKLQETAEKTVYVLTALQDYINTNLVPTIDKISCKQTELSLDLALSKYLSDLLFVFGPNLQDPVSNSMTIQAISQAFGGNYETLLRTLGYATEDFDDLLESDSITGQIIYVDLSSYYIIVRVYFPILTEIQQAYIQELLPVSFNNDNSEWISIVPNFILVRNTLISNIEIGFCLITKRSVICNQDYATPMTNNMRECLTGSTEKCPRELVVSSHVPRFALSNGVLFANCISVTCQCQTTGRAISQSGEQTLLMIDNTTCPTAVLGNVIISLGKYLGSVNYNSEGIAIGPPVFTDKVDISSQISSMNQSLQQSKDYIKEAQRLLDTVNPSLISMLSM

[2] = molecular target: T1, sF ectodomain (Nipah henipavirus), …; experiment: BLI; conditions: modification not given

Binder: HECNISCPNPLPFREYRPQTEGV [P-59 peptide peptide P-59, Q9IH62]
- Kd [1]: 5 µM
- Kd [2]: 0.19 µM
